Experimental data: article PMC6259754
“And” between values parts separate entries of the source, which are not always exact repeats. Equal entries are not always repeated.

B1: Bovine fetuin (natural protein)
chain: IPLDPVAGYKEPACDDPDTEQAALAAVDYINKHLPRGYKHTLNQIDSVKVWPRRPTGEVYDIEIDTLETTCHVLDPTPLANCSVRQQTQHAVEGDCDIHVLKQDGQFSVLFTKCDSSPDSAEDVRKLCPDCPLLAPLNDSRVVHAVEVALATFNAESNGSYLQLVEISRAQFVPLPVSVSVEFAVAATDCIAKEVVDPTKCNLLAEKQYGFCKGSVIQKALGGEDVRVTCTLFQTQPVIPQPQPDGAEAEAPSAVPDAAGPTPSAAGPPVASVVVGPSVVAVPLPLHRAHYDLRHTFSGVASVESSSGEAFHVGKTPIVGQPSIPGGPVRLCPGRIRYFKI
modifications: glycoprotein with N-linked biantennary and triantennary complex oligosaccharides (sites not given)
B2: Bovine fibrinogen (complex)
chain 1: GPRLVERQQSACKETGWPFCSDEDWNTKCPSGCRMKGLIDEVDQDFTSRINKLRDSLFNYQKNSKDSNTLTKNIVELMRGDFAKANNNDNTFKQISEDLRSRIEILRRKVIEQVQRIKVLQKNVRDQLVDMKRLEVDIDIKIRSCKGSCSRALEHKVDLEDYKNQQKQLEQVIAINLLPSRDIQYLPLIKMSTITGPVPREFKSQLQEAPLEWKALLEMQQTKMVLETFGGDGHARGDSVSQGTGLAPGSPRKPGTSSIGNVNPGSYGPGSSGTWNPGRPEPGSAGTWNPGRPEPGSAGTWNPGRPEPGSAGTWNPGRPEPGSAGTWNPGRPEPGSAGTWNTGSSGSSSFRPDSSGHGNIRPSSPDWGTFREEGSVSSGTKQEFHTGKLVTTKGDKELLIDNEKVTSGHTTTTRRSCSKVITKTVTNADGRTETTKEVVKSEDGSDCGDADFDWHHTFPSRGNLDDFFHRDKDDFFTRSSHEFDGRTGLAPEFAALGESGSSSSKTSTHSKQFVSSSTTVNRGGSAIESKHFKMEDEAESLEDLGFKGAHGTQKGHTKARPARGIHTSPLGEPSLTP
chain 2: GHRPYDKKKEEAPSLRPVPPPISGGGYRARPATATVGQKKVERKPPDADGCLHADPDLGVLCPTGCKLQDTLVRQERPIRKSIEDLRNTVDSVSRTSSSTFQYITLLKNMWKGRQNQVQDNENVVNEYSSHLEKHQLYIDETVKNNIPTKLRVLRSILENLRSKIQKLESDVSTQMEYCRTPCTVTCNIPVVSGKECEKIIRNEGETSEMYLIQPEDSSKPYRVYCDMKTEKGGWTVIQNRQDGSVDFGRKWDPYKQGFGNIATNAEGKKYCGVPGEYWLGNDRISQLTNMGPTKLLIEMEDWKGDKVTALYEGFTVQNEANKYQLSVSKYKGTAGNALIEGASQLVGENRTMTIHNSMFFSTYDRDNDGWKTTDPRKQCSKEDGGGWWYNRCHAANPNGRYYWGGAYTWDMAKHGTDDGVVWMNWQGSWYSMKKMSMKIRPYFPEQ
chain 3: YVATRDNCCILDERFGSYCPTTCGIADFLNNYQTSVDKDLRTLEGILYQVENKTSEARELVKAIQISYNPDQPSKPNNIESATKNSKSMMEEIMKYETLISTHESTIRFLQEVYNSNSQKIVNLRDKVVQLEANCQEPCQDTVKIHDVTGRDCQDVANKGAKESGLYFIRPLKAKQFLVYCEIDGSGNGWTVFQKRLDGSLDFKKNWIQYKEGFGHLSPTGTGNTEFWLGNEKIHLISTQSSIPYVLRIQLEDWNGRTSTADYASFKVTGENDKYRLTYAYFIGGDAGDAFDGYDFGDDSSDKFFTSHNGMQFSTWDSDNDKYDGNCAEQVGIGWWMNKCHAGHLNGVYYQGGTYSKTSTPNGYDNGIIWATWKSRWYSMKKTTMKIIPLNRLAIGEGQQHQLGGAKQVGVEHHVEIEYD

Assays:
[1] = target: Phaseolus acutifolius agglutinin (lectin from white tepary bean, Phaseolus acutifolius variety latifolius) (Phaseolus acutifolius)
[2] = target: Phaseolus acutifolius agglutinin (lectin from white tepary bean, Phaseolus acutifolius variety latifolius) (Phaseolus acutifolius); test: SEC; TSK 3000 SW HPLC column in PBS, 0.5 mL/min, 0.1 mg pure lectin; data not shown
[3] = target: Phaseolus acutifolius agglutinin (lectin from white tepary bean, Phaseolus acutifolius variety latifolius) (Phaseolus acutifolius); test: native gel or EMSA
[4] = target: Phaseolus acutifolius agglutinin (lectin from white tepary bean, Phaseolus acutifolius variety latifolius) (Phaseolus acutifolius); test: SEC

| Molecule | Inhibitory concentration (lowest concentration giving complete inhibition) of hemagglutination of trypsinized human A erythrocytes by PAA [1] | Inhibitory concentration (lowest concentration giving complete inhibition) of hemagglutination of trypsinized human O erythrocytes by PAA [1] | stoichiometry N [2] | stoichiometry N [3] | stoichiometry N [4] |
| --- | --- | --- | --- | --- | --- |
| Ovoalbumin (from UniProt P01012 1-386) (natural protein) | 1.3 mg/mL | 1.3 mg/mL |  |  |  |
| Phaseolus acutifolius agglutinin (lectin from white tepary bean, Phaseolus acutifolius variety latifolius) (natural protein) |  |  | 2 | > 4 | 4 and 2 |
| Porcine thyroglobulin (from UniProt F1RRV3 20-2692) (natural protein) | 0.0048 mg/mL | 0.0048 mg/mL |  |  |  |
| Recombinant soluble human β-1,6-N-acetylglucosaminyltransferase V (from UniProt Q09328 1-741) (enzyme) | 0.0273 mg/mL | 0.0017 mg/mL |  |  |  |
| B1 | 0.156 mg/mL | 0.0781 mg/mL |  |  |  |
| B2 | 0.0391 mg/mL | 0.0098 mg/mL |  |  |  |
